Measured values published in patent publication US20250122242A1, “SELECTION SYSTEMS, PEPTIDES DETERMINED THEREWITH, AND METHODS OF USING SAME” (Wisconsin Alumni Research Foundation, priority 2023, published 2025).

Key:
hIAPP = target: T1, hIAPP (Homo sapiens, UniProt P10997); experiment: ThT fluorescence assay of in vitro hIAPP aggregation; type: biochemical; details: for effect on aggregation lag time (tlag) / inhibition of hIAPP aggregation (ThT fluorescence): 10 μM hIAPP, PBS pH 6.9, 32° C.; for effect on aggregation lag time (tlag): ThT; for activity relative to MCIP-2a: at higher peptide:hIAPP stoichiometries; for inhibition of hIAPP aggregation (ThT fluorescence): chemically synthesized peptide, quiescent
T1 construct: A 1 mg portion of amylin trifluoroacetate salt (Bachem) was purchased as lyophilized solid in a vial; purchased Bachem
T1 sequence (P10997 34-70 limits assumed): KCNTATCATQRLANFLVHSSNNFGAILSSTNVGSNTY
Description: Preparation of ThT stock solution. To prepare a stock solution of ThT (2-3 mM), 2-4 mg of ThT was added to 3 mL PBS (pH 6.9) in a 15 mL conical tube. The solution was sonicated for 5 min and the supernatant was filtered through a 0.22 μm syringe filter into a 1.5 mL Eppendorf tube. This was the ThT stock solution to be used in following experiments. 2 mL of a 1:200 diluted ThT solution was prepared by adding 10 μL ThT stock solution into 1990 μL PBS. The absorbance of the diluted ThT solution measured at 412 nm was used to calculate the ThT stock concentration using an extinction coefficient (c) of 31600 M^−1 cm^−1.
Preparation of hIAPP stocks. A 1 mg portion of amylin trifluoroacetate salt (Bachem) was purchased as lyophilized solid in a vial. The solid was dissolved in pre-chilled 2562 μL 35 mM sodium acetate (pH 5.3) to a stock concentration of 100 μM on ice. Aliquots of hIAPP were prepared by transferring 200 μL of the 100 μM hIAPP stock solution to low-protein-binding Eppendorf tubes on ice. The aliquots were then immediately snap frozen using liquid N2, lyophilized for 24 h, and stored at −80° C. until use.
Preparation of samples for ThT assays. Using cyclic peptide stock solution (100 μM) and PBS, 400 μL aqueous solution of cyclic peptide was prepared in a low-protein-binding Eppendorf tube to achieve the desired cyclic peptide:hIAPP molar ratio (80 μM for 4:1, 40 μM for 2:1, 20 μM for 1:1, 10 μM for 0.5:1, 0 μM for 0:1). 30 μL of the solution was then loaded to wells on a black clear-bottom low-binding 96-well plate (Corning 3881) to make a triplicate for each condition. This plate loaded with aqueous solutions of cyclic peptides was then ready for adding hIAPP.
Preparation and addition of hIAPP for ThT assays. Using ThT stock solution and PBS, 1 mL ThT solution (10 μM) was prepared in a low-protein-binding Eppendorf tube and chilled on ice. 0.5 mL of the pre-chilled ThT solution was added to one aliquot of lyophilized hIAPP, which was equilibrated to room temperature before opening the tube. Pipetting up and down four times was performed to facilitate complete dissolving of hIAPP. The 0.5 mL hIAPP-containing solution was immediately transferred to the remaining 0.5 mL ThT solution on ice. Pipetting up and down four times was performed to facilitate complete mixing. The resulting 1 mL hIAPP solution, where [hIAPP]=20 μM, was immediately transferred to a 25 mL liquid reservoir. Using a multi-channel pipette, 30 μL of the hIAPP solution was quickly loaded into wells containing aqueous solutions of cyclic peptides on the 96-well plate. Final [hIAPP]=10 μM, [ThT]=5 μM.
ThT assay conditions. The plate was then quickly covered and incubated in a Tecan M Plex microplate reader under quiescent condition at 32° C. for at least 12 h. ThT fluorescence at 480 nm was measured every 5 min through the bottom of the plate using an excitation wavelength of 440 nm.
Fitting of aggregation kinetics. ThT aggregation kinetics data was fit to a sigmoidal function using GraphPad Prism and the aggregation lag time (tlag) and the apparent fibril elongation rate (kapp) calculated as described.^55

Aβ42-T7n = Aβ42-T7n (UniProt P00573+P05067); details: for Fold enrichment in negative vs. positive selection: percent reads negative vs. positive selection; for Percent total reads (negative selection) / Rank (negative selection): subsequent negative selection against Aβ42, high-throughput sequencing
Aβ42-T7n, sequence (P05067+P00573 fused): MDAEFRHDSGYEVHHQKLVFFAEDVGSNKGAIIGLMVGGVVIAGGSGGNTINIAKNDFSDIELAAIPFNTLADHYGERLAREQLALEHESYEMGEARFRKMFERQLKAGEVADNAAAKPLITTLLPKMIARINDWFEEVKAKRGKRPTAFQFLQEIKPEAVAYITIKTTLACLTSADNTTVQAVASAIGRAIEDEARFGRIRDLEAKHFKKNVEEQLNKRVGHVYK
From the text: To create a negative selection, we placed gIII-neg, a dominant-negative form of gIII,^44 under PT7 in our selection circuit. Inhibition of a non-target APP (ex. Aβ42) triggers pIII-neg expression and poisons phage proliferation. A second plasmid produces small amounts of pIII from the phage shock promoter (FIG. 16A). All SPs infecting cells encoding this negative selection receive sufficient pIII to propagate. However, SP that carry a promiscuous or false positive cyclic peptide will also produce pIII-neg and generate non-infectious progeny (FIGS. 16B and 16C). We subjected the hIAPP round 5 phage population to four rounds of negative selection, diluting the phage by 100-fold each round (FIG. 5B).
Single colonies of host cells transformed with the appropriate selection plasmids were used to make overnight cultures in 2×YT with maintenance antibiotics. The overnight culture was diluted (1:100) into 4-5 mL DRM with maintenance antibiotics and incubated at 37° C. with shaking until the OD600 of the culture reached ˜0.5, upon which the expanded phage library was added at a titer of 1×10^6 pfu/mL. The culture was incubated at 37° C. with shaking overnight (13-18 h). The next day, the culture was centrifuged at 8,000 rcf for 2 min to obtain the supernatant containing phage. The collected phage was diluted into fresh host cell cultures (10 to 1,000-fold) for the next round of selection, while the rest was stored at 4° C. for downstream analysis. This process was repeated until a significant increase in phage propagation was observed compared with the parent library. Both positive and negative selection rounds were performed using this procedure.
Sample preparation. Phage stocks collected from the final rounds of library selection were first amplified using LY0145 and LY0146. The PCR product was purified, and adapters added using LY0147 and LY0148. The resulting PCR product was purified and barcoded through a final PCR using index primers to add unique indices for shared Illumina NovaSeq sequencing. The final PCR product was purified, and the concentration measured by Nanodrop. Further sample quality control was performed by the University of Wisconsin-Madison Biotechnology Center (UWBC).
High-throughput sequencing and data analysis. High-throughput sequencing was performed by UWBC using a shared sequencing service on the NovaSeq 6000 platform. Sequencing reads were demultiplexed by UWBC and analyzed using custom-written Python scripts.

| Substance | effect on aggregation lag time (tlag) (hIAPP) | activity relative to MCIP-2a (hIAPP) | inhibition of hIAPP aggregation (ThT fluorescence) (hIAPP) | Fold enrichment in negative vs. positive selection (Aβ42-T7n) | Percent total reads (negative selection) (Aβ42-T7n) [%] | Rank (negative selection) (Aβ42-T7n) |
| --- | --- | --- | --- | --- | --- | --- |
| CRCVFSG (cyclised; Circular) [cyclo-CRCVFSG] | extended tlag | less active than MCIP-2a | inhibited hNAPP fibrillation | 701.46 | 24.55 | 2 |
| CDLGVFR (cyclised; Circular) [cyclo-CDLGVFR] | extended tlag | less active than MCIP-2a | inhibited hNAPP fibrillation | 410.79 | 31.22 | 1 |
| CHVVGVI (cyclised; Circular) [cyclo-CHVVGVI] | delaying the aggregation lag time (tlag) in a dose-dependent fashion | less active than MCIP-2a | inhibited hIAPP aggregation | 0.003 | 0.29 | 20 |
